Laboratory results taken from the nanobody polyreactivity screen of Harvey et al. (2022).

Assay: yeast display, Sf9 membrane polyspecificity reagent, FACS + sequencing; frameworks hold sequencing errors
Outline: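 Nanobodies came from a synthetic yeast display library in Saccharomyces cerevisiae BJ5465, induced with galactose for 36–48 hours and stained for 1 hour at 4 °C with 10% biotinylated, detergent-solubilized Sf9 membrane reagent. Cells were enriched on streptavidin microbeads and then FACS-sorted, with low and high (top ~1%) gates set on anti-HA fluorescence for expression and streptavidin fluorescence for reagent binding. Each polyreactivity label reflects the gate a clone came from. Genes were amplified by colony PCR, sequenced by MiSeq 2 × 250 and filtered by CDR length.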

Sequence	polyreactivity (PSR sort gate)
QVQLVESGGGLVQAGGSLRLSCAASGSTFGDYAMGWSRQAPGKERELVAAISRGGSTYYADSVKGRFTISRDNEKNTVYLQMNSLKPEDTAVYYCNKDEGYSASPDGSTFDYWGQGTQVTVSS	low polyreactivity
QVQLVESGGGFVQAGGSLRLSCAASGRIFKQYGIGWYRQAPGKERELVAAIRSGDSTNYADSVKGRFTISRDNAKNTVYLQMNSLKPEDTAVYYCARDRPGDYAGYDYWGQGTQVTVSS	low polyreactivity
QVQLEESGGGLVQAGGSLRLSCADSGITFYLNAMGWYRQAPGKERELVADITVSGGSTYYADSVKGRFTISRDNAKNTVYLEMNSLKPEDTAVYYCAADMTISYSQEYYFWGQGTQVTVSS	low polyreactivity
QGQLVESGGGLVQAGGSLRLSCAASVRTFYKYAMGWYRQAPGKERELVATITSGGSTNYADSVKGRFTISRDNAKNTVYLQMNSLKPEDTAVYYCAARGHIYKIRDPYWTHDYWGQGTQVTVSS	low polyreactivity
QVQLVESGGGLVQAGGSLRLRCAASGSTFVYNGMGWYRQAPGKERELVATISSTGSTNYADSVKGRFTISRDNAKNTVFLQMNSLKPEDTAVYYCATEYITYLAYDYWGQGTQVTVSS	low polyreactivity
QVQLVESGGGLVQAGGSLRLSCAASGRTVVNAMGWYRQAPGKERELVAAISSNGGRTYYADSVKGRFTISRDNAKNTVYLQMTSLKPEDTAVYYCAKGLGIRPTYYYWGQGTKVTVSS	high polyreactivity
QVQLVESGGGLVQAGGSLRLSCAASGFTFYKYVMGWYRQAPGKERELVAAITTSGGSTYYADSVKGRFTISRDNAKNTVYLQMNSLKPEDTAVYYCNARSLHTSEGDYWGQGTQVTVSS	low polyreactivity
QVQLVESGGGLVQAGGSLRLSCAASGFIFSRYTMGWYRQAPGKERELVAAITWSGGSTYYADSVKGRFTISRDNAKNTVYLQMNSLKPVDTAVYYCAAARISVVQGDYWGQGTQVTVSS	high polyreactivity
QVQLVESGGGLVQAGGSLRLSCAASGSTSYNAMGWYRQAPGKERELVAAISDGGGSTYYADSVKGRFTISRDNAKNTVYLQMISLKPEDTAVYYCAADTITGDGYWAQGTQVTVSS	low polyreactivity
QVQLVESGGGLVQAGVSLRLSCAASGSILTINAMGLYRQAPGKERELVPAITSGGGSTYYADSVKGRFTISRDNAKNTVYLQMNSLKPEDTAVYYCNKVFVLPYKFVAWFDYWGQGTQVTVSS	low polyreactivity
QVQLVESGGGLVQAGGSLRLICAASGSIFGRYAMGWYRQAPGKERELVAAITGSGGTTYYADSVKGRFTISRDNAKNTVYLQMNSLKPEDTAVYYCAADPQVYYSGRPRYDYWGQGTQVTVSS	high polyreactivity
QVQLVESGGGLVQAGGSLRLSCEASGRTFDTYAMGCYRQAPGKERELVAAITTSGGTTYYADSVKGRFTISRDNAKNTVYLQMNSLKPEDTAVYYCAADPWIEYTYGSKAYYYWGQGTQVTVSS	low polyreactivity
QVQLVESGGCLVQAGGSLRLSCAASGRTFRYYAMGWYRQAPGKERELVAAITGGGGSTYYADSVKGRFTISRDNAKNTVYLQMNSLKPEDTAVYYCNKLRYKQWGAQYPMDYWGQGTQVTVSS	high polyreactivity
QVQLVESGGGLVQAGGSLRLSCAASGFTFFFYAMGWYRQAPGKVRELVAGISQSGGNTNYADSVKGRFTISRDNAKNTVYLQMNSLKPEDTAVYYCAKTRYQYWRVTAFDYWGQGTQVTVSS	low polyreactivity
QVQLVESGGGLVQAGGSLRLSCAASGYTSYVYAMGWYRQAPGKERELVAAISLRTASTYYADSVKGRFTISRDTAQKTVYVQMNSLKPEDTAVYYCARGRETYRYSYRLNYWGQGTQVTVSS	high polyreactivity
QVQLVESGGGLVQAGGSLRLSCAASGSIFPSNAMGWYRQAPGKERELVAAISWSGDITYYADSVKGRFTISRDNAKNTVYLQLNSLKPEDTAVYYCAADTPIAGYWYNYWGQGTQVTVSS	low polyreactivity
QVQLVESGGGIVQAGGSLRLRCAASGSTFNKYAMGWYRQAPGKERELVAAISGGGRTNYADSVKGRFTISRDNAKNTVYLQMNSLKPEDTAVYSCARPSPHKGYDYWGQGTQVTVSS	high polyreactivity
QDQLVESGGGLVQAGGSLRLSCAASGFIFGLNAMGWYRQAPGKERELVASISRRCGSTYYAYSVKGRFTISRDNAKNTVYLQMNSLKPEDTAVYYCASDTLGGTSLGDYWGQGIQVTVSS	high polyreactivity
QVQLEESGGGLVQAGGSLRLSCAASGSIFGLYAMGWYRQAPGKERELVAAINQSGGSTSYADSVKGRFTISRDNAKNTVYLQMNSLKPEDTAVYYCNRVRLNTEGFDYWGQGTQVTVSS	low polyreactivity
QVQLVESGGGLVQAGGSLRLSCAASGRIFSDNAMGWYRQAPGKERELVATINYSGGSTYYADSVKGRFTISRDNAKNTVYLQMNSLKPEDTAVYYCATRIPHRINYYDYDYWGQGTQVTVSS	low polyreactivity
QVQLVESGGGLVQAGGSLRLSCAASGSIFGLYAMGWYRQAPGKERELVAAITDSTGSTSYADSVKGRFTISRDNAKNTVYLQMTSLKPEDTAVYYCAAGQGRWRHGFDYWGQGTQVTVSS	low polyreactivity
QVQLVESGGGLVQAGGSLRLSCAASGFTFATYTIGWYRPAPGKERELVAAISWSGGSTYYADSVKGRFTISRDNAKNTVYLQMNSLKPEDTAFYYCAAQRPSALRLYSSQRTIFGYWGQGTQVTVSS	high polyreactivity

Sequence	polyreactivity (PSR sort gate)
QVQLVESGGGLVQAGGSLRLSCAASGSIFRYYVMGWYRQAPGKERELVAAITKSAGSTYYADSVKGRFTISRDNAKNTVYLQMNSLKPEDTAVYYCAARRVSRGNSKFDYYWGQGTQVTVSS	high polyreactivity
QDQLVESGGGLVQAGGSLRLSCAASGGIFLYYSMGWYRQAPGKERELVAAISRGGGRTYYADSVKGRFTISRDNAKNTVYLHMNSLKPEDTAVYYCAVEYGTGYQWWEYYYWGQGTQVTVSS	high polyreactivity
QVQLVESGGGLVQAGGSLRLSCAASGFTFHYYTMGWYRQAPGKEREFVAAISKSGGRTYYADSVKGRFTISRDNAKNTVYLQMNSLKPEDTAVYYCATVGYWRNRHDYWGQGTQVTVSS	high polyreactivity
QVQLVESGGGLVQAGGSLRLSCAASGRTFVPNAMGWYRQAPGKERELVAAISWSGDSTYYADSVKGRFTISRDNAKNTVYLQMNSLKPEDTAVYYCAARYEFFYKAFDVDSWGQGTQVTVSS	low polyreactivity
QVQLVESGGGLVQAGGSLRLSCAASGFTFSRNVMGWYRQAPGKERELVADITLSGASTYYADSVKARFTISRDNAKNTVYLQMNSLKPEDTSVYSCAADPYHWRWGWRHDYWGQGTQVTVSS	low polyreactivity
QVQLVESGGGLVQAGGSLRLSCAASGGIFFSYAMGWYRQAPGKERELVAAIRTNGGTTYYADSVKGRFTISRDNAKNTVYLQMNRLKPEDTAVYYCAALPGGYYDRGEYDYWGQGTQVTVSS	low polyreactivity
QVQLVESGGGLVQAGGSLRLSCAASGSTFARYAMGWYRQAPGKERELVAAITWRGGSTYYADSVKGRFTISRDNAKNTVYLQMNSLKPEDTAVYYCAADFSRRYGYWGQGTQVTVSS	high polyreactivity
QVQLVESGGGLVQAGGSLRLSCAASGLIFWAYAMGWYRQAPGKERELVAAISWSGARTYYADSVKGRFTISRDNAKNTVYLQMNSLKPEDTAVYYCAAGVSSSSSGYEGDYWGQGTQVTVSS	high polyreactivity
QVQLVESGGGLVQAGGSLRLSCAASGRTFYANDMGWYRQAPGKERELVARITSGGSTYYADSVKGRFTISRDNAKNTVYLQMNSLKPEDTAVYYCAAVTRRFSYRYNYWGQGTQVTVSS	high polyreactivity
QVQLVESGGGLVQAGGSLRLSCAASGRTFDYYSMGWYRQAPGTERELVAAISSSGGRTYYADSVKGRFTISRDNAKNTVYLQMNSLKPEDTAVYYCNAVVSRNYEYWGQGTQVTVSS	high polyreactivity
QFQLVESGGGLVQAGGSLRLSCAASGSTFVYNAMGWDRHAPGKERELVAAISRGGGITYYADSVKGRFTISRDKAKNSVYFQMHSLKPEDTAVYYCQYLSRGLNTYRSSQGDDDYWGHGTQVTVSS	high polyreactivity
QVQLLESGGGLVQAGGSLRLSCAASGSNFYVNAMGWYRQAPGKERELVAAITSTGTTHYADSVKGRFTISRDNAKNTDYLHMNSLKPEDTAVYYCAAYSRYQSRRYYYWGQGTQVTVSS	high polyreactivity
QVQIVESGGGLVQAGGSLRLSCAASGIIFYNYAMGWYREAPGKERELVAAITGTGSRTYYADSVKGRFTISRDNAKNTVYLQMNSLNPEDTAVYYCAVNTRRYWYGYWGQGTQVTVSS	high polyreactivity
QVQLVESGGGLVQAGGSLRLSCAASGRILYRYVMGWYRQAPGKERELVAGISWSGGSTYYADSVKGRFTISRDNAKNTVYLQMNSLNPEDTAVYYCNKYIGALGRWGYDYWGQGTQVTVSS	low polyreactivity
QVQLVESGGGLVQAGGSLRLSCAASGGIFYFNAMGWYRQAPGKERELVASITWSGGNTYYADSVKGRFTISRDNAKNTVYLQMNSLKPEDTAVYDCAADTQEYRPTYDYWGQGTQVTVSS	low polyreactivity
QVQLVESGGGLVQAGGSLRLSSAASGRTFRYYAMRWYRQAPAKERELVAAINRGGSTYYGDSVKGRFTISRDNAKNTVYLQMNSLKPVDTAVYYCNVDKYRIVGFHTPYDYWGQGTQVTVSS	high polyreactivity
QVQLVESGGGLVQAGGSLRLSCAASGSTFAYYMGWYRQAPGKERELVASISTYYADSVKGRFTISRDNAKNTVYLQMNSLKPEDTAVYSCAKGYPDPQWGGVLAYDYWGQGTQVTVSS	low polyreactivity
QVQLVESGGGLVQAGGSLRLSCAASGSTFGVNAMVWYRQAPGKERELVAGISVDDSTTYYADSVKGRFTISRDNAKNTVYLQMNSLKPEDTAVYYCAAEREKTLYYLSRFDYWGQGTQVTVSS	low polyreactivity
QVQLVESGGGLVQAGGSLRLSCAASGGTFLVNAMGWYRQSPGKEREWVATITARVASTYYADSVTGRFTISRDNAKNTVYLQMNTLKPEDTAVYYCAARKVWGYTYGYPYYYWGQATQVTVSS	high polyreactivity
QVQLVESGGGLVQAGASLRLSCAASGRTFGGYAMGWYRQAAGKERELVAAISYSGGSTYYADSVKGRFTISRDYAKNTVYLQMNSLKPEDTAVYYCAADGFDAYYWGQGTQVTVSS	low polyreactivity
QVQLVESGGGLVQAGGSLRLSCAASGRIFSWYAMGWYRQAPGKERELVAAISASGSSTYYADSVKGRFTISRDNAKNTVYLQMNSLKPEDTAVYYCNTVSAYYARRSEGYDYWGQGTQVTVSS	high polyreactivity
